This data set deals with Escherichia coli TOP10. In words: shrunken log2 fold change of peptide-encoding DNA abundance (4.5 h post-induction vs induction); higher = less antimicrobial activity (less host growth inhibition). The note with it: time post-induction: 4.5 h; library: site-saturation at positions 5, 18, 19, 20.
Take RRIRTRPPRLPRPRPRPRVTPRP: the “shrunken log2 fold change” value was -0.163.

As to RRIRIRPPRLPRPRPRPQQGPRP, the “shrunken log2 fold change” value is -0.295.

In the case of RRIRMRPPRLPRPRPRPDRCPRP, the “shrunken log2 fold change” value was 0.0778.

RRIRGRPPRLPRPRPRPYNWPRP: the “shrunken log2 fold change” value is -0.225.

Turning to RRIRKRPPRLPRPRPRPKWKPRP, the “shrunken log2 fold change” value worked out at 0.479.

RRIRHRPPRLPRPRPRPGLAPRP: the “shrunken log2 fold change” value was 0.366.

On to RRIRLRPPRLPRPRPRPDTPPRP, for which the “shrunken log2 fold change” value worked out at 0.0881.

On to RRIRIRPPRLPRPRPRPKPWPRP, for which the “shrunken log2 fold change” value was 0.192.

With RRIRIRPPRLPRPRPRPCGKPRP, the “shrunken log2 fold change” value is -0.025.

In the case of RRIRPRPPRLPRPRPRPGQKPRP, the “shrunken log2 fold change” value is -0.00227.

For the sequence RRIRFRPPRLPRPRPRPKIEPRP, the “shrunken log2 fold change” value was -0.202.

RRIRFRPPRLPRPRPRPEYSPRP: the “shrunken log2 fold change” value was determined as 5.84e-05.

Consider RRIRNRPPRLPRPRPRPFVHPRP, for which the “shrunken log2 fold change” value was -0.568.

As for RRIRMRPPRLPRPRPRPASFPRP, the “shrunken log2 fold change” value turned out to be 0.126.

Consider RRIRQRPPRLPRPRPRPPTIPRP, for which the “shrunken log2 fold change” value is 2.14.

In the case of RRIRQRPPRLPRPRPRPWLWPRP, the “shrunken log2 fold change” value is 0.145.

Take RRIRERPPRLPRPRPRPWWCPRP: the “shrunken log2 fold change” value was -0.426.

RRIRERPPRLPRPRPRPMRFPRP: the “shrunken log2 fold change” value was -0.0231.

With RRIRNRPPRLPRPRPRPYIKPRP, the “shrunken log2 fold change” value is -1.03.

Regarding RRIRWRPPRLPRPRPRPQWWPRP, the “shrunken log2 fold change” value was determined as 0.00856.

Consider RRIRVRPPRLPRPRPRPKSDPRP, for which the “shrunken log2 fold change” value is -0.142.

RRIRERPPRLPRPRPRPKYEPRP: the “shrunken log2 fold change” value was -0.303.

Turning to RRIRIRPPRLPRPRPRPAHAPRP, the “shrunken log2 fold change” value was -0.0674.

RRIRIRPPRLPRPRPRPSRPPRP: the “shrunken log2 fold change” value was -0.00676.

For RRIRNRPPRLPRPRPRPPWGPRP, the “shrunken log2 fold change” value was 0.254.

For RRIRCRPPRLPRPRPRPKCQPRP, the “shrunken log2 fold change” value was 0.201.

Consider RRIRFRPPRLPRPRPRPLFFPRP, for which the “shrunken log2 fold change” value was -0.259.

Regarding RRIRFRPPRLPRPRPRPFILPRP, the “shrunken log2 fold change” value was -0.749.

Regarding RRIRARPPRLPRPRPRPYDYPRP, the “shrunken log2 fold change” value was -0.282.

For the sequence RRIRARPPRLPRPRPRPARFPRP, the “shrunken log2 fold change” value amounted to 1.03.

In the case of RRIRHRPPRLPRPRPRPGYPPRP, the “shrunken log2 fold change” value is -0.0459.

RRIRWRPPRLPRPRPRPSTYPRP: the “shrunken log2 fold change” value is -0.0575.

For the sequence RRIRIRPPRLPRPRPRPFCMPRP, the “shrunken log2 fold change” value was -0.4.

Regarding RRIRARPPRLPRPRPRPLSPPRP, the “shrunken log2 fold change” value amounted to 0.0788.

As for RRIRTRPPRLPRPRPRPANCPRP, the “shrunken log2 fold change” value was -0.0321.

For RRIRNRPPRLPRPRPRPQKAPRP, the “shrunken log2 fold change” value is -0.0017.

Take RRIRARPPRLPRPRPRPYHCPRP: the “shrunken log2 fold change” value is -0.0366.

Take RRIRERPPRLPRPRPRPNSCPRP: the “shrunken log2 fold change” value was -0.128.

In the case of RRIRCRPPRLPRPRPRPERAPRP, the “shrunken log2 fold change” value was found to be 0.675.

Turning to RRIRHRPPRLPRPRPRPFLWPRP, the “shrunken log2 fold change” value is -0.353.

Take RRIRERPPRLPRPRPRPAVIPRP: the “shrunken log2 fold change” value was -0.12.

Consider RRIRARPPRLPRPRPRPKNWPRP, for which the “shrunken log2 fold change” value stood at 0.465.

On to RRIRIRPPRLPRPRPRPEGLPRP, for which the “shrunken log2 fold change” value is -0.185.

In the case of RRIRYRPPRLPRPRPRPKMWPRP, the “shrunken log2 fold change” value was -0.113.

RRIRIRPPRLPRPRPRPFVNPRP: the “shrunken log2 fold change” value was -0.488.

As to RRIRDRPPRLPRPRPRPGRRPRP, the “shrunken log2 fold change” value was found to be 0.311.

For RRIRRRPPRLPRPRPRPVESPRP, the “shrunken log2 fold change” value was 0.126.

Turning to RRIRARPPRLPRPRPRPNGKPRP, the “shrunken log2 fold change” value amounted to 0.3.

Turning to RRIRVRPPRLPRPRPRPAAPPRP, the “shrunken log2 fold change” value amounted to 0.452.

As to RRIRIRPPRLPRPRPRPGNMPRP, the “shrunken log2 fold change” value was -0.105.

In the case of RRIRFRPPRLPRPRPRPMAAPRP, the “shrunken log2 fold change” value was -0.0736.

On to RRIRHRPPRLPRPRPRPSAFPRP, for which the “shrunken log2 fold change” value was -0.435.

As to RRIRTRPPRLPRPRPRPMQAPRP, the “shrunken log2 fold change” value was -0.0247.

As to RRIRTRPPRLPRPRPRPLHPPRP, the “shrunken log2 fold change” value stood at 0.375.

For RRIRERPPRLPRPRPRPICPPRP, the “shrunken log2 fold change” value was -0.794.

In the case of RRIRQRPPRLPRPRPRPTFKPRP, the “shrunken log2 fold change” value was -0.225.

As for RRIRKRPPRLPRPRPRPIWMPRP, the “shrunken log2 fold change” value is -0.0467.

Regarding RRIRCRPPRLPRPRPRPILTPRP, the “shrunken log2 fold change” value is -0.302.

As for RRIRARPPRLPRPRPRPGMCPRP, the “shrunken log2 fold change” value worked out at 0.494.

Take RRIRLRPPRLPRPRPRPGINPRP: the “shrunken log2 fold change” value is -0.354.

Turning to RRIRKRPPRLPRPRPRPHFKPRP, the “shrunken log2 fold change” value is -0.0252.

RRIRVRPPRLPRPRPRPDCLPRP: the “shrunken log2 fold change” value was -0.318.

For RRIRPRPPRLPRPRPRPKQIPRP, the “shrunken log2 fold change” value came out at 0.0957.

Turning to RRIRSRPPRLPRPRPRPKNRPRP, the “shrunken log2 fold change” value was determined as 0.0193.

As to RRIRLRPPRLPRPRPRPCLTPRP, the “shrunken log2 fold change” value was -0.304.

RRIRPRPPRLPRPRPRPNQTPRP: the “shrunken log2 fold change” value amounted to 0.106.

For the sequence RRIRMRPPRLPRPRPRPHGLPRP, the “shrunken log2 fold change” value is 0.0212.

With RRIRERPPRLPRPRPRPACTPRP, the “shrunken log2 fold change” value is -0.224.

Turning to RRIRFRPPRLPRPRPRPPNSPRP, the “shrunken log2 fold change” value is -0.544.

Take RRIRTRPPRLPRPRPRPLYSPRP: the “shrunken log2 fold change” value was -0.575.

As to RRIRKRPPRLPRPRPRPFNYPRP, the “shrunken log2 fold change” value was -0.463.

Turning to RRIRDRPPRLPRPRPRPEQCPRP, the “shrunken log2 fold change” value was -0.00146.

On to RRIRPRPPRLPRPRPRPTFVPRP, for which the “shrunken log2 fold change” value stood at 0.012.

For the sequence RRIRCRPPRLPRPRPRPGTFPRP, the “shrunken log2 fold change” value is -0.0668.

RRIRARPPRLPRPRPRPHPEPRP: the “shrunken log2 fold change” value was found to be 0.7.

Turning to RRIRFRPPRLPRPRPRPNAGPRP, the “shrunken log2 fold change” value is -0.0253.

On to RRIRWRPPRLPRPRPRPRGEPRP, for which the “shrunken log2 fold change” value was determined as 0.397.

For RRIRTRPPRLPRPRPRPRYIPRP, the “shrunken log2 fold change” value is -0.368.

Regarding RRIRNRPPRLPRPRPRPYLHPRP, the “shrunken log2 fold change” value is -0.429.

Regarding RRIRKRPPRLPRPRPRPWVQPRP, the “shrunken log2 fold change” value amounted to 0.0916.

RRIRTRPPRLPRPRPRPSTRPRP: the “shrunken log2 fold change” value is -0.296.

On to RRIRCRPPRLPRPRPRPMHRPRP, for which the “shrunken log2 fold change” value was determined as 0.0421.

Regarding RRIRGRPPRLPRPRPRPLIGPRP, the “shrunken log2 fold change” value came to 0.561.

For the sequence RRIRPRPPRLPRPRPRPSTMPRP, the “shrunken log2 fold change” value is -0.297.

Regarding RRIRRRPPRLPRPRPRPMGSPRP, the “shrunken log2 fold change” value is -0.0322.

Turning to RRIRYRPPRLPRPRPRPPITPRP, the “shrunken log2 fold change” value was -0.834.

RRIRTRPPRLPRPRPRPKWCPRP: the “shrunken log2 fold change” value was 0.00669.

Regarding RRIRGRPPRLPRPRPRPVYYPRP, the “shrunken log2 fold change” value was found to be 0.164.

Regarding RRIRIRPPRLPRPRPRPPPYPRP, the “shrunken log2 fold change” value was -0.177.

For RRIRSRPPRLPRPRPRPPNIPRP, the “shrunken log2 fold change” value was -0.251.

Regarding RRIRVRPPRLPRPRPRPPIIPRP, the “shrunken log2 fold change” value was -0.222.

For RRIRDRPPRLPRPRPRPPPLPRP, the “shrunken log2 fold change” value stood at 0.586.

In the case of RRIRCRPPRLPRPRPRPHKGPRP, the “shrunken log2 fold change” value is -0.363.

As for RRIRHRPPRLPRPRPRPSIVPRP, the “shrunken log2 fold change” value was -0.0474.

RRIRQRPPRLPRPRPRPMHWPRP: the “shrunken log2 fold change” value turned out to be 0.0747.

In the case of RRIRLRPPRLPRPRPRPIFTPRP, the “shrunken log2 fold change” value was -0.206.

As to RRIRIRPPRLPRPRPRPPWSPRP, the “shrunken log2 fold change” value was 0.219.

For RRIRFRPPRLPRPRPRPVIDPRP, the “shrunken log2 fold change” value was -0.225.

Take RRIRGRPPRLPRPRPRPQFAPRP: the “shrunken log2 fold change” value was found to be 0.273.

As to RRIRKRPPRLPRPRPRPRGGPRP, the “shrunken log2 fold change” value is 0.848.

Turning to RRIRKRPPRLPRPRPRPTCAPRP, the “shrunken log2 fold change” value turned out to be 0.786.

Take RRIRQRPPRLPRPRPRPGGCPRP: the “shrunken log2 fold change” value is 0.546.

Take RRIRHRPPRLPRPRPRPQTHPRP: the “shrunken log2 fold change” value was -0.143.

Turning to RRIRPRPPRLPRPRPRPRLHPRP, the “shrunken log2 fold change” value was found to be 0.624.

As for RRIRERPPRLPRPRPRPTVQPRP, the “shrunken log2 fold change” value is -0.157.

Turning to RRIRARPPRLPRPRPRPSAVPRP, the “shrunken log2 fold change” value came out at 0.282.

Turning to RRIRVRPPRLPRPRPRPKTGPRP, the “shrunken log2 fold change” value is -0.048.

In the case of RRIRQRPPRLPRPRPRPDSQPRP, the “shrunken log2 fold change” value was found to be 0.0234.

On to RRIRDRPPRLPRPRPRPSREPRP, for which the “shrunken log2 fold change” value is -0.0011.

With RRIRDRPPRLPRPRPRPTEAPRP, the “shrunken log2 fold change” value was 0.405.

With RRIRQRPPRLPRPRPRPEGPPRP, the “shrunken log2 fold change” value came to 0.172.

On to RRIRDRPPRLPRPRPRPWHCPRP, for which the “shrunken log2 fold change” value turned out to be 0.102.

With RRIRVRPPRLPRPRPRPSKTPRP, the “shrunken log2 fold change” value is -0.61.

For RRIRCRPPRLPRPRPRPKVDPRP, the “shrunken log2 fold change” value turned out to be 0.0328.

RRIRGRPPRLPRPRPRPTQIPRP: the “shrunken log2 fold change” value was 1.38.

For RRIRVRPPRLPRPRPRPARLPRP, the “shrunken log2 fold change” value worked out at 0.266.

For RRIRMRPPRLPRPRPRPRRSPRP, the “shrunken log2 fold change” value amounted to 0.438.

For RRIRNRPPRLPRPRPRPTQLPRP, the “shrunken log2 fold change” value is -0.0336.

Take RRIRTRPPRLPRPRPRPDGMPRP: the “shrunken log2 fold change” value turned out to be 0.0749.

With RRIRERPPRLPRPRPRPFVVPRP, the “shrunken log2 fold change” value was -0.0043.

In the case of RRIRMRPPRLPRPRPRPVKVPRP, the “shrunken log2 fold change” value came out at 0.0321.

For RRIRCRPPRLPRPRPRPKAYPRP, the “shrunken log2 fold change” value is -0.0053.

Consider RRIRERPPRLPRPRPRPEHVPRP, for which the “shrunken log2 fold change” value is -0.017.

RRIRTRPPRLPRPRPRPGFRPRP: the “shrunken log2 fold change” value was -0.0537.

As for RRIRWRPPRLPRPRPRPACLPRP, the “shrunken log2 fold change” value stood at 0.521.
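Further: peptides expressed intracellularly from a pBAD plasmid library in pooled LB shake-flask culture, induced with 0.3% L-arabinose, DNA abundance read by NGS, three biological replicates, DESeq2 with apeglm shrinkage.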
